T1: EsCas13d, nuclease-dead (Eubacterium siraeum, UniProt B0MS50, R295A;H300A;R849A;H854A)
T1 sequence: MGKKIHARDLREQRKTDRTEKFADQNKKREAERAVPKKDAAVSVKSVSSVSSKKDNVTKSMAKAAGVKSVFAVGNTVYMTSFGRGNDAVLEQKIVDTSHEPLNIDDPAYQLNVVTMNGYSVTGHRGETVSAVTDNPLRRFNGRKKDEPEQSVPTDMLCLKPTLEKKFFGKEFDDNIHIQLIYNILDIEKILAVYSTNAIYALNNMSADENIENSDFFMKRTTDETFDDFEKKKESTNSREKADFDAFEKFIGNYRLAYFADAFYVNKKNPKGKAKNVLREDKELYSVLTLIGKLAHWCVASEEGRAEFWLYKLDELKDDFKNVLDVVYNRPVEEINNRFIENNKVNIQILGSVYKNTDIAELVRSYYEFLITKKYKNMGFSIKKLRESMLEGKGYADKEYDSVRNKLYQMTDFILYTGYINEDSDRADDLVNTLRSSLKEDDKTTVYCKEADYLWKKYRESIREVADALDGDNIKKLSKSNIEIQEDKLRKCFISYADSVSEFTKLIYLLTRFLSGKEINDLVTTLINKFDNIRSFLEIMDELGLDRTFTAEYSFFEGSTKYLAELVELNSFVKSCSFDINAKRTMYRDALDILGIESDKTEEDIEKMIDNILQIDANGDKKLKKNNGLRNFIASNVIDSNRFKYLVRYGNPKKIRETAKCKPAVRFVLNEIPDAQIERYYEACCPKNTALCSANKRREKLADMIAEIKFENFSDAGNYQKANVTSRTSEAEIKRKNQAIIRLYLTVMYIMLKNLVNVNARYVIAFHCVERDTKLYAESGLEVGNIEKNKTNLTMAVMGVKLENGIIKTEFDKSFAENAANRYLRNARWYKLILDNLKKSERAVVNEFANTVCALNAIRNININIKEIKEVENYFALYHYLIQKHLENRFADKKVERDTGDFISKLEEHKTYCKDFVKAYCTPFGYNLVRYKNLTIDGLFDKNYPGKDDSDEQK

B1: target 2 MT 5'PFS GUC 3'PFS ACG (mixed)
RNA 1: CACCCGUGCAAAAUUGCAGGGGUCUAAAACCUUCUCCAAAUUGUUUCAUCCU
RNA 2: GGGAAUGGAUCCACAUCUACGAAUUCGUCAGGAUGAAACAAUUUGGAGAAGACGAGAUCGGAAGAGCACACGU
B2: target 2 MT 5'PFS CGC 3'PFS CGU (mixed)
RNA 1: B1 RNA 1
RNA 2: B1 RNA 2 with G27C, U28G, A52C, C53G, G54U
B3: target 2 MT 5'PFS CAU 3'PFS CUA (mixed)
RNA 1: B1 RNA 1
RNA 2: B1 RNA 2 with G27C, U28A, C29U, A52C, C53U, G54A
B4: target 2 MT 5'PFS CAU 3'PFS CUU (mixed)
RNA 1: B1 RNA 1
RNA 2: B1 RNA 2 with G27C, U28A, C29U, A52C, C53U, G54U
B5: target 2 MT 5'PFS CGC 3'PFS UUU (mixed)
RNA 1: B1 RNA 1
RNA 2: B1 RNA 2 with G27C, U28G, A52U, C53U, G54U
B6: target 2 MT 5'PFS ACC 3'PFS CUU (mixed)
RNA 1: B1 RNA 1
RNA 2: B1 RNA 2 with G27A, U28C, A52C, C53U, G54U
B7: target 2 MT 5'PFS CGC 3'PFS CGA (mixed)
RNA 1: B1 RNA 1
RNA 2: B1 RNA 2 with G27C, U28G, A52C, C53G, G54A
B8: target 2 MT 5'PFS ACC 3'PFS CUC (mixed)
RNA 1: B1 RNA 1
RNA 2: B1 RNA 2 with G27A, U28C, A52C, C53U, G54C
B9: target 2 MT 5'PFS GAA 3'PFS AAU (mixed)
RNA 1: B1 RNA 1
RNA 2: B1 RNA 2 with U28A, C29A, C53A, G54U
B10: target 2 MT 5'PFS AUG 3'PFS AAA (mixed)
RNA 1: B1 RNA 1
RNA 2: B1 RNA 2 with G27A, C29G, C53A, G54A
B11: target 2 MT 5'PFS GCG 3'PFS ACG (mixed)
RNA 1: B1 RNA 1
RNA 2: B1 RNA 2 with U28C, C29G
B12: target 2 MT 5'PFS GCG 3'PFS ACU (mixed)
RNA 1: B1 RNA 1
RNA 2: B1 RNA 2 with U28C, C29G, G54U
B13: target 2 MT 5'PFS GCG 3'PFS ACA (mixed)
RNA 1: B1 RNA 1
RNA 2: B1 RNA 2 with U28C, C29G, G54A
B14: target 2 MT 5'PFS UAA 3'PFS CCG (mixed)
RNA 1: B1 RNA 1
RNA 2: B1 RNA 2 with G27U, U28A, C29A, A52C
B15: target 2 MT 5'PFS AUG 3'PFS AAU (mixed)
RNA 1: B1 RNA 1
RNA 2: B1 RNA 2 with G27A, C29G, C53A, G54U
B16: target 2 MT 5'PFS UUG 3'PFS AUC (mixed)
RNA 1: B1 RNA 1
RNA 2: B1 RNA 2 with G27U, C29G, C53U, G54C
B17: target 2 MT 5'PFS GCG 3'PFS UAU (mixed)
RNA 1: B1 RNA 1
RNA 2: B1 RNA 2 with U28C, C29G, A52U, C53A, G54U
B18: target 2 MT 5'PFS AUU 3'PFS CAU (mixed)
RNA 1: B1 RNA 1
RNA 2: B1 RNA 2 with G27A, C29U, A52C, C53A, G54U
B19: target 2 MT 5'PFS CGC 3'PFS CGC (mixed)
RNA 1: B1 RNA 1
RNA 2: B1 RNA 2 with G27C, U28G, A52C, C53G, G54C
B20: target 2 MT 5'PFS GCG 3'PFS UAA (mixed)
RNA 1: B1 RNA 1
RNA 2: B1 RNA 2 with U28C, C29G, A52U, C53A, G54A
B21: target 2 MT 5'PFS GCG 3'PFS UAC (mixed)
RNA 1: B1 RNA 1
RNA 2: B1 RNA 2 with U28C, C29G, A52U, C53A, G54C
B22: target 2 MT 5'PFS ACC 3'PFS CUG (mixed)
RNA 1: B1 RNA 1
RNA 2: B1 RNA 2 with G27A, U28C, A52C, C53U
B23: target 2 MT 5'PFS GUC 3'PFS ACU (mixed)
RNA 1: B1 RNA 1
RNA 2: B1 RNA 2 with G54U
B24: target 2 MT 5'PFS UUG 3'PFS CUA (mixed)
RNA 1: B1 RNA 1
RNA 2: B1 RNA 2 with G27U, C29G, A52C, C53U, G54A
B25: target 2 MT 5'PFS GCG 3'PFS ACC (mixed)
RNA 1: B1 RNA 1
RNA 2: B1 RNA 2 with U28C, C29G, G54C
B26: target 2 MT 5'PFS CGC 3'PFS UUC (mixed)
RNA 1: B1 RNA 1
RNA 2: B1 RNA 2 with G27C, U28G, A52U, C53U, G54C
B27: target 2 MT 5'PFS UUG 3'PFS AUA (mixed)
RNA 1: B1 RNA 1
RNA 2: B1 RNA 2 with G27U, C29G, C53U, G54A
B28: target 2 MT 5'PFS CGC 3'PFS CGG (mixed)
RNA 1: B1 RNA 1
RNA 2: B1 RNA 2 with G27C, U28G, A52C, C53G
B29: target 2 MT 5'PFS UAA 3'PFS CCA (mixed)
RNA 1: B1 RNA 1
RNA 2: B1 RNA 2 with G27U, U28A, C29A, A52C, G54A
B30: target 2 MT 5'PFS AUG 3'PFS AAC (mixed)
RNA 1: B1 RNA 1
RNA 2: B1 RNA 2 with G27A, C29G, C53A, G54C
B31: target 2 MT 5'PFS UUG 3'PFS AUG (mixed)
RNA 1: B1 RNA 1
RNA 2: B1 RNA 2 with G27U, C29G, C53U
B32: target 1 C6U,A20U (mixed)
RNA 1: CACCCGUGCAAAAAUGCAGGGGUCUAAAACUGAGCGGAUAACCUCUCUAUGG
RNA 2: GGGAAUGGAUCCACAUCUACGAAUUCGUACCUUAGAGAGGUUAUCUGCUCACCGAGAUCGGAAGAGCACACGU
B33: target 1 insG 3' of 10,insA 3' of 3 (mixed)
RNA 1: B32 RNA 1
RNA 2: GGGAAUGGAUCCACAUCUACGAAUUCGUACCAUAGAGAGGUUGAUCCGCUACACCGAGAUCGGAAGAGCACACGU
B34: target 1 insC 3' of 19,insG 3' of 4 (mixed)
RNA 1: B32 RNA 1
RNA 2: GGGAAUGGAUCCACAUCUACGAAUUCGUACCAUCAGAGAGGUUAUCCGCGUCACCGAGAUCGGAAGAGCACACGU
B35: target 1 insA 3' of 21,insG 3' of 9 (mixed)
RNA 1: B32 RNA 1
RNA 2: B34 RNA 2 with U33A, C34U, U45G, C46U, G48C, C49G, G50C

Numbering of substitutions follows the chain as printed. Names and notes keep the numbering of the source.

Usually Kd stands for the free concentration of one partner at which half of the binding sites on the other are occupied at equilibrium, for simple one-to-one binding. Low values mean a tighter complex, high ones a looser complex.

For this data set, the target named is T1, EsCas13d, nuclease-dead. The experiment in a line: crRNA (strand 1, pre-loaded); Mg2+; 40 mM Tris-HCl pH 7.5, 150 mM NaCl, 6 mM MgCl2, 1 mM DTT, 0.1% Tween-20, 0.2 mg/ml BSA; 25 C; 10 min per concentration, then washed. The following applies: tags: His6-TwinStrep-SUMO cleaved; N-terminal SNAP kept (SNAP-Surface 488); label: 3' end held by stalled T7 RNA polymerase.
The molecule B1 gave a Kd of 16.1 ± 1.3 nM.

The molecule B2 had a Kd of 3.5 ± 0.4 nM.

On to B3, for which the Kd was determined as 4.1 ± 0.6 nM.

The molecule B4 displayed a Kd of 4.6 ± 0.6 nM.

The molecule B5 gave a Kd of 17 ± 4 nM.

The molecule B6 yielded a Kd of 6.3 ± 1.6 nM.

On to B7, for which the dissociation constant (Kd) worked out at 6.7 ± 2.1 nM.

On to B8, for which binding was put at a Kd of 7.4 ± 1.2 nM.

Molecule B9 came in with a Kd of 16 ± 7 nM.

Regarding B10, the Kd came out at 7.8 ± 1.6 nM.

B11 yielded a Kd of 14 ± 2.1 nM.

B12 showed an equilibrium dissociation constant (Kd) of 13.8 ± 1.2 nM.

As to B13, the Kd stood at 16 ± 4 nM.

Molecule B14 showed an equilibrium dissociation constant (Kd) of 5.6 ± 0.6 nM.

With B15, the Kd is 7.6 ± 1 nM.

B16 had a Kd of 14.1 ± 1.3 nM.

Molecule B17 yielded a Kd of 14.9 ± 2.4 nM.

Take B18: the Kd is 5.7 ± 0.7 nM.

In turn, B19 displayed a dissociation constant (Kd) of 4.1 ± 0.4 nM.

As for B20, the dissociation constant (Kd) was 9.6 ± 2.4 nM. This Kd lies about 2.3-fold higher than the previous one.

In turn, B21 returned a Kd of 13.1 ± 3.1 nM.

B22: the Kd is 9 ± 1.1 nM.

Regarding B23, the Kd was 20.5 ± 2.1 nM. Against the preceding molecule, the Kd is about 2.3-fold higher.

B24 came in with a Kd of 14.9 ± 1.7 nM. This Kd and that of the molecule before are within 1.5-fold of each other.

In turn, B25 yielded a Kd of 30 ± 8 nM.

Molecule B26 came in with a Kd of 12.1 ± 1.9 nM.

For the molecule B27, the affinity, expressed as Kd, was 9.4 ± 0.8 nM.

As to B28, the affinity, expressed as Kd, was 7.3 ± 1.2 nM.

B29 came in with a Kd of 20 ± 6 nM. Against the preceding molecule, the Kd is about 2.7-fold higher.

B30 showed an equilibrium dissociation constant (Kd) of 18 ± 6 nM.

For B31, the Kd turned out to be 13.1 ± 1.5 nM.

The molecule B32 showed a Kd of 35 ± 5 nM.

Molecule B33 registered a Kd of 45 ± 6 nM.

B34 returned a Kd of 21.5 ± 1.3 nM.

The molecule B35 yielded a Kd of 46 ± 6 nM. This Kd lies about 2.1-fold higher than the previous one.

These data come from publication PMC10786891, “Massively parallel profiling of RNA-targeting CRISPR-Cas13d”.
